Assays:
[1] = system: proteases; assay: Protease digestion, summary over the panel of proteases; type: in vitro ADME; settings: of the 9 proteases tested; 1 µU enzyme, 1 hr, 37°C, SDS-PAGE
[2] = system: Trypsin; assay: Protease digestion, SDS-PAGE: trypsin; type: in vitro ADME; settings: 1 µU trypsin, 1 hr, 37°C, Coomassie, Figure 1

| Substance | Number of proteases the material was resistant to [1] | Appearance of peptide bands on SDS-PAGE after digestion by trypsin [2] |
| --- | --- | --- |
| Griffithsin [GRFT] | 8 | – |
| PSC-RANTES | – | reduced intensity or density rather than disappearing |

— paper PMC3354962 (Advances in bioscience and biotechnology (Print), 2011)
